Among the data in paper PMC4703389 are interaction parameter from regression of the diffusion coefficient versus concentration values, retold here.

One experiment addresses 7D8-E345K (human). As to the kind of experiment: dynamic light scattering; 7D8 and mutants in PBS pH 7.4 up to 100 mg/mL, 25°C; linear regression of diffusion coefficient versus antibody concentration; self-association.
The target in a further experiment is 7D8-E430G (human). The description is as above.

Consider 7D8-E345K (antibody), for which the interaction parameter from regression of the diffusion coefficient versus concentration with 7D8-E345K (human) is -0.0174 mL/g.

7D8-E430G (antibody): in the experiment with 7D8-E430G (human), the interaction parameter from regression of the diffusion coefficient versus concentration is -0.0126 mL/g.
